The source of these data is article PMC10394066, “Polymorphic amyloid nanostructures of hormone peptides involved in glucose homeostasis display reversible amyloid formation” (Nature Communications, 2023).

Series [1] deals with the molecule itself. The experiment in a line: far-UV CD; 0.15–0.20 mM peptide in distilled water, physiological pH and above (above pH 5), stirred 500–600 rpm at 37 °C, measured at 25 °C for up to weeks.
Series [2] concerns the molecule itself. The experiment in a line: crystal structure; amyloid-like single crystals grown from peptide solutions (water, water/ACN/TFA, water/EtOH or 0.1 M citrate pH 4.0; pH 2-7; 4-37 °C; conditions of each polymorph in Table 1); data at 100 K, Cu Kα.
Series [3] deals with the molecule itself. The experiment in a line: FTIR; 6 mM peptide in water, pH adjusted from 7.2 to 4.2; amide I band 1625–1630 cm^−1; bio-ATR cell.
Series [4] deals with the molecule itself. Nature of the series: far-UV CD; 0.15–0.20 mM peptide in distilled water, acidic pH set with HCl/NaOH, stirred 500–600 rpm at 37 °C, measured at 0–168 h at 25 °C; U to β/β’-type spectral shift.

Non-standard residues stand in square brackets, D forms with d. No end group written: not given here. pGlu = O=C1CC[C@@H](C(=O)O)N1

B1: APR^Tc5b hexapeptide LYIQWL (synthetic exendin-like APR of the de novo designed Tc5b and E19) (peptide)
peptide: LYIQWL
notes: hexapeptide segment of the de novo designed Trp-cage exendin derivatives Tc5b and E19; non-natural, no acidic side chain; also called LYIQWL (Tc5b, E19); source: synthetic peptide (flow solid-phase synthesis, Fmoc/tBu; RP-HPLC purified)
For B1, the binding result in series [1] was “binds”.

B2: APR^GLP2 hexapeptide DFINWL (aggregation-prone region of glucagon-like peptide 2) (peptide)
peptide: DFINWL
notes: aggregation-prone hexapeptide segment of human glucagon-like peptide 2 (GLP-2); free termini (no terminal protection); also called DFINWL (GLP-2); source: synthetic peptide (flow solid-phase synthesis, Fmoc/tBu; RP-HPLC purified)
Regarding B2, the binding result in series [2] was “binds”.

B3: APR^GLP1 hexapeptide EFIAWL (aggregation-prone region of glucagon-like peptide 1) (peptide)
peptide: EFIAWL
notes: aggregation-prone hexapeptide segment of human glucagon-like peptide 1 (GLP-1); source: synthetic peptide (flow solid-phase synthesis, Fmoc/tBu; RP-HPLC purified)
For the protein B3, the binding result in series [3] is recorded as “binds”.

B4: pEFIAWL (APR^GLP1 with N-terminal pyroglutamic acid) (peptide)
peptide: [pGlu]FIAWL
notes: aggregation-prone hexapeptide segment of human GLP-1; residue 1 is pyroglutamic acid; Both EFIAWL and pEFIAWL were present in the crystallization samples; the crystal holds pEFIAWL; also called pEFIAWL (GLP-1); APR^GLP1 (in the crystal); source: formed from synthetic EFIAWL by spontaneous ring closure in the crystallization sample (pH ≈ 2, 37 °C)
For B4, the binding result in series [2] was “binds”.

B5: Ac-EFIAWL (N-terminally acetylated APR^GLP1) (peptide)
peptide: Ac-EFIAWL
notes: aggregation-prone hexapeptide segment of human GLP-1, N-terminally acetylated; also called Ac-EFIAWL (GLP-1); source: synthetic peptide
With B5, the binding result in series [4] was “binds”.
